{
  "source": "patent US7378234",
  "target": "soluble HLA-B*0702 (human)",
  "data": [
    {"binder": "SPGALVVGVI (modifications not checked)", "note": "[Ipep 1838]", "values": [
      {"measurement": "% competition", "value": 30, "unit": "%"}
    ]}
  ]
}
